According to patent US20240124586A1 (WUXI BIOLOGICS IRELAND, published 2024):
Each block holds one binder with its values, some of them ahead of it.

Assays:
[1] = target: T1, FcγRI (UniProt P12314 16-288, limits assumed); experiment: SPR (Biacore), receptor captured on anti-his chip, 1:1 model
T1 construct: His-tagged by the capture method
Protocol: Antibody binding affinity to FcγRs was detected using Biacore T200 (or Biacore 8K). Each receptor was captured on an anti-his antibody immobilized CM5 sensor chip (GE). Antibodies at different concentrations were injected over the sensor chip at a flow rate of 30 uL/min for an association phase of 60 s, followed by 60 s dissociation. The chip was then regenerated by 10 mM glycine (pH 1.5) after each binding cycle.
The sensorgrams of blank surface and buffer channel were subtracted from the test sensorgrams. The experimental data was fitted by 1:1 model using Langmiur analysis (for FcγRI) or steady state model (for other receptors). A molecular weight of 150 KDa was used to calculate the molar concentration of antibodies.

[2] = target: T2, Cynomolgus CD3 epsilon protein (W331-cynoPro1.ECD.His) (cynomolgus, UniProt Q95LI5 22-117); experiment: ELISA, cynomolgus CD3 epsilon protein coated
T2 construct: extracellular domain; Bought protein; also called Acro #CDE-C5226
T2 sequence (looked up): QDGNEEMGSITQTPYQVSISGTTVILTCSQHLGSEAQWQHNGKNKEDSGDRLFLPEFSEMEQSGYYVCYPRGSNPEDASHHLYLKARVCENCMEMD
Protocol: The binding of the CD3×CD19 bispecific antibody to Cynomolgus CD3 were tested by protein binding ELISA. […] All wells were washed one time with 300 μL per well of PBS/0.5‰ Tween-20 (v/v). The wells were then blocked for one hour at room temperature with 200 μL per well of PBS/2% BSA (BOVOGEN, #BSAS) and washed three times with 300 μL per well of PBS/0.5‰ Tween-20 (v/v). For the primary antibody binding, CD3×CD19 bispecific antibody serially diluted in PBS/2% BSA were added to the relevant wells and incubated at room temperature for two hours. […] Plates were incubated at room temperature for one hour, followed by six washes as described above. […] The extent of bispecific antibody binding to Cynomolgus CD3 was determined by measuring the OD450 absorbance using the SpectraMax® M5e microplate reader. Wherever appropriate, binding EC50 values were obtained by the four-parameter non-linear regression analysis using GraphPad Prism5 software.

[3] = target: human C1Q (human, UniProt P02745 23-245; P02746 28-253; P02747 29-245); experiment: ELISA, antibody coated on the plate, C1q titrated
human C1Q, sequence (P02745 23-245 limits assumed, chain 1 of 3): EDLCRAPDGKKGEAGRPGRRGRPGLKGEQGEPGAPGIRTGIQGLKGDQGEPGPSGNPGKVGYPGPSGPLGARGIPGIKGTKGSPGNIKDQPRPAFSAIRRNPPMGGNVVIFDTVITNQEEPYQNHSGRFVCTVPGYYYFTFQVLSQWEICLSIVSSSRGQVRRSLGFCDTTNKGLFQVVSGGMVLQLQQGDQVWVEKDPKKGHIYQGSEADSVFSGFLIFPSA
human C1Q, sequence (P02746 28-253 limits assumed, chain 2 of 3): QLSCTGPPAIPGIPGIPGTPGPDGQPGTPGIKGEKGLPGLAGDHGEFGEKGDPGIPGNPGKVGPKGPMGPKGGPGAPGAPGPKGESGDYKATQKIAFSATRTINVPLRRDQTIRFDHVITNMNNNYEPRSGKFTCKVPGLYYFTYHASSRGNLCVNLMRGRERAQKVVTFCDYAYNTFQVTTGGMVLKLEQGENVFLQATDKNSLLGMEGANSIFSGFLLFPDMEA
human C1Q, sequence (P02747 29-245 limits assumed, chain 3 of 3): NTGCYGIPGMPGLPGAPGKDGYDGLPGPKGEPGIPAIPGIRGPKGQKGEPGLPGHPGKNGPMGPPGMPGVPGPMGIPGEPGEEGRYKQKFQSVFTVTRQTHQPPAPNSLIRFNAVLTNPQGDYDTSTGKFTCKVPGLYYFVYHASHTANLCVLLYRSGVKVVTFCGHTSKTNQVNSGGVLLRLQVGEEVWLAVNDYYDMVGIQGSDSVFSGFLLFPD
Protocol: ELISA Plates (Nunc) were coated with antibody samples at 3 μg/mL overnight at 4° C. After blocking and washing, C1q was gradient diluted starting from 600 μg/mL and incubated at room temperature for 2 hr. The plates were then washed and subsequently incubated with sheep anti-human C1q Ab-HRP for 1 hr. After washing, TMB substrate was added and the interaction was stopped by 2 M HCl. The absorbance at 450 nm was read using a microplate reader (Molecular Device).
The binding activity of antibodies to C1Q was tested by ELISA.

[4] = target: T3, FcRn (UniProt P55899 24-297; P61769 21-119, limits assumed); experiment: SPR at pH 6.0, antibody immobilized, FcRn injected, steady state model; pH 6.0
T3 construct: a molecular weight of 45 kDa was used
Protocol: Antibody binding affinity to FcRn was detected using Biacore T200 (or Biacore 8K). Each antibody was immobilized on CM5 sensor chip (GE). FcRn at different concentrations in running buffer (50 mM Na2HPO4/NaH2PO4, 150 mM NaCl, 0.05% Tween20, pH 6.0) were injected over the sensor chip at a flow rate of 30 uL/min for an association phase of 60 s, followed by 60 s dissociation. The chip was then regenerated by 1×PBS (pH 7.4) after each binding cycle.

[5] = target: T4, biotinylated human CTLA-4.ECD.hFc (W316-hPro1.ECD.hFc.Biotin) (human, UniProt P16410 36-161, biotin-labelled (site not stated)); experiment: competitive FACS, biotinylated CTLA-4.ECD.hFc on human CD80 CHO-K1 cells (competitor: CD80)
T4 construct: extracellular domain; In-house protein; also called hCTLA-4.ECD.hFc-Biotin; human CTLA-4 protein
T4 sequence (P16410 36-161): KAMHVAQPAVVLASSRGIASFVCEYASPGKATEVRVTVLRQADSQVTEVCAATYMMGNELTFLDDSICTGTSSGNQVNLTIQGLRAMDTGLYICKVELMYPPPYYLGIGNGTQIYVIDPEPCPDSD
Protocol: (§1) Competitive FACS was used to test whether the antibodies could block human or cynomolgus CTLA-4 binding to hCD80 on cell surface. […] Then the mixtures of antibody and CTLA-4 were added to the cells and incubated for 1 hour at 4° C. The cells were washed two times with 200 μl FACS washing buffer (DPBS containing 1% BSA). Streptavidin PE (BD Pharmingen-554061) 1 to 600 diluted in FACS buffer was added to the cells and incubated at 4° C. for 1 hour. Additional washing steps were performed two times with 200 μL FACS washing buffer followed by centrifugation at 1500 rpm for 4 minutes at 4° C. Finally, the cells were resuspended in 100 μL FACS washing buffer and fluorescence values were measured by flow cytometry and analyzed by FlowJo.

[6] = target: cynomolgus CTLA-4 protein (cynomolgus, UniProt G7PL88 36-161, Probably biotinylated for streptavidin-PE detection, as described for the human CTLA-4 reagent in paragraph 775; the letters cannot carry this.); experiment: FACS competition: blocks cynomolgus CTLA-4 protein binding to human CD80 engineered cells
cynomolgus CTLA-4 protein, sequence (G7PL88 entry or part of it limits assumed): as the sequence (P16410 36-161) above, with S14N, I18T, L106M counted along it
Protocol: as §1

[7] = target: T5, human PD-1 ECD mouse Fc fusion (W305-hPro1.ECD.mFc) (human, UniProt Q15116 25-170); experiment: dual binding ELISA, PD-1 ECD.mFc coated, detection with biotinylated CTLA-4 ECD.hFc; second antibody named, second value; PD-1 coated, biotinylated CTLA-4 detection
T5 construct: extracellular domain; In-house protein; also called hPD-1-ECD; human PD-1 coated on the plate
T5 sequence (Q15116 25-170): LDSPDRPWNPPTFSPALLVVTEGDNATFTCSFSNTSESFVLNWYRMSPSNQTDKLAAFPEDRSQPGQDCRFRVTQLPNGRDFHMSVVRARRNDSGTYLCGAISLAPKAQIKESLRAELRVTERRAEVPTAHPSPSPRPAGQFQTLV
Protocol: (§2) In order to test whether the bispecific antibodies could bind to both hPD-1 and hCTLA-4, an ELISA assay was developed as below. A 96-well ELISA plate (Nunc MaxiSorp, ThermoFisher) was coated overnight at 4° C. with 0.5 μg/ml antigen-1 (hPD-1-ECD, W305-hPro1.ECD.mFc) in carbonate-bicarbonate buffer. After a 1 hour blocking step with 2% (w/v) bovine serum albumin (Pierce) dissolved in PBS, serial dilutions of the different PD-1×CTLA-4 bispecific antibodies in PBS containing 2% BSA PBS were incubated on the plates for 1 hour at room temperature. Following the incubation, plates were washed three times with 300 μL per well of PBS containing 0.5% (v/v) Tween 20. […] After washing the plates three times, Streptavidin-HRP (Lifetechnologies, #SNN1004) (1:20000 diluted) was added and incubated on the plates for 1 hour at room temperature. After washing six times with […] per well of PBS containing 0.5% (v/v) Tween 20, 100 μL tetramethylbenzidine (TMB) substrate was added for the detection per well. The reaction was stopped after approximately 5 minutes through the addition of […] per well of 2 M HCl. The absorbance of the wells was measured at 450 nm with a multiwall plate reader (SpectraMax® M5e).

[8] = target: T5, human PD-1 ECD mouse Fc fusion …; experiment: dual binding ELISA, PD-1 ECD.mFc coated, detection with biotinylated CTLA-4 ECD.hFc; first antibody named, first value; PD-1 coated, biotinylated CTLA-4 detection
Protocol: as §2

T1 sequence (P12314 16-288 limits assumed): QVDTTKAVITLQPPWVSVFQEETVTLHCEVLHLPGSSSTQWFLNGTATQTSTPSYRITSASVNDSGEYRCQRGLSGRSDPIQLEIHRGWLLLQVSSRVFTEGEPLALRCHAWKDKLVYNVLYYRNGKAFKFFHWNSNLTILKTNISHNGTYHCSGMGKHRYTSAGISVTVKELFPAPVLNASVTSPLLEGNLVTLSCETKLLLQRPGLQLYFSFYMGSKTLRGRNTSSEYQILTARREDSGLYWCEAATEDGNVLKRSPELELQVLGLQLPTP

- Kd [1]: 9.79 nM
- EC50 [2]: 0.04 nM
- binding result [3]: no binding (tested: about 1500 nM C1q)
- Kd [4]: 2580 nM
B1: W3438-T3U4.E17-1.uIgG4.SP, bispecific anti-CD3 x CD19 (bispecific antibody)
heavy 1: QVQLVQSGAEVKKPGSSVKVSCKASGFAFTDYYIHWVRQAPGQGLEWMGWISPGNVNTKYNENFKGRVTITADKSTSTAYMELSSLRSEDTAVYYCARDGYSLYYFDYWGQGTLVTVLEDLKNVFPPEVAVFEPSEAEISHTQKATLVCLATGFYPDHVELSWWVNGKEVHSGVCTDPQPLKEQPALQDSRYALSSRLRVSATFWQNPRNHFRCQVQFYGLSENDEWTQDRAKPVTQIVSAEAWGRYGPPCPPCPAPEFLGGPSVFLFPPKPKDTLMISRTPEVTCVVVDVSQEDPEVQFNWYVDGVEVHNAKTKPREEQFNSTYRVVSVLTVLHQDWLNGKEYKCKVSNKGLPSSIEKTISKAKGQPREPQVYTLPPCQEEMTKNQVSLWCLVKGFYPSDIAVEWESNGQPENNYKTTPPVLDSDGSFFLYSRLTVDKSRWQEGNVFSCSVMHEALHNHYTQKSLSLSLGK
light 1: DIVMTQSPDSLAVSLGERATINCKSSQSLLNSRTRKNYLAWYQQKPGQPPKLLIYWASTRQSGVPDRFSGSGSGTDFTLTISSLQAEDVAVYYCTQSHTLRTFGGGTKVEIKPDIQNPDPAVYQLRDSKSSDKSVCLFTDFDSQTQVSQSKDSDVYITDKCVLDMRSMDFKSNSAVAWSQKSDFACANAFQNSIIPEDTFFPSPESS
heavy 2: QMQLVQSGPEVKKPGTSVKVSCKASGYAFTSYNMYWVRQARGQRLEWIGYIDPYNGDTTYNQKFKGRVTITRDMSTSTAYMELSSLRSEDTAVYYCLTTAYAMDYWGQGTLVTVSSASTKGPSVFPLAPCSRSTSESTAALGCLVKDYFPEPVTVSWNSGALTSGVHTFPAVLQSSGLYSLSSVVTVPSSSLGTKTYTCNVDHKPSNTKVDKRVESKYGPPCPPCPAPEFLGGPSVFLFPPKPKDTLMISRTPEVTCVVVDVSQEDPEVQFNWYVDGVEVHNAKTKPREEQFNSTYRVVSVLTVLHQDWLNGKEYKCKVSNKGLPSSIEKTISKAKGQPREPQVCTLPPSQEEMTKNQVSLSCAVKGFYPSDIAVEWESNGQPENNYKTTPPVLDSDGSFFLVSRLTVDKSRWQEGNVFSCSVMHEALHNHYTQKSLSLSLGK
light 2: DIQLTQSPSFLSASVGDRVTITCSASSTVNYMHWYQQKPGKAPKLLIYSTSNLASGVPSRFSGSGSGTEFTLTISSLQPEDFATYYCHQWSSYPYTFGQGTKLEIKRTVAAPSVFIFPPSDEQLKSGTASVVCLLNNFYPREAKVQWKVDNALQSGNSQESVTEQDSKDSTYSLSSTLTLSKADYEKHKVYACEVTHQGLSSPVTKSFNRGEC
notes: also called E17-Design_2-QQQQ (IgG4); E17-IgG4; copies: 1 + 1 + 1 + 1

- IC50 [5]: 0.758 nM
- IC50 [6]: 2.14 nM
- EC50 [7]: 0.071 nM
B2: W3248-U6T5.G25-1.uIgG4.SP, bispecific anti-PD-1 x CTLA-4 (bispecific antibody)
heavy: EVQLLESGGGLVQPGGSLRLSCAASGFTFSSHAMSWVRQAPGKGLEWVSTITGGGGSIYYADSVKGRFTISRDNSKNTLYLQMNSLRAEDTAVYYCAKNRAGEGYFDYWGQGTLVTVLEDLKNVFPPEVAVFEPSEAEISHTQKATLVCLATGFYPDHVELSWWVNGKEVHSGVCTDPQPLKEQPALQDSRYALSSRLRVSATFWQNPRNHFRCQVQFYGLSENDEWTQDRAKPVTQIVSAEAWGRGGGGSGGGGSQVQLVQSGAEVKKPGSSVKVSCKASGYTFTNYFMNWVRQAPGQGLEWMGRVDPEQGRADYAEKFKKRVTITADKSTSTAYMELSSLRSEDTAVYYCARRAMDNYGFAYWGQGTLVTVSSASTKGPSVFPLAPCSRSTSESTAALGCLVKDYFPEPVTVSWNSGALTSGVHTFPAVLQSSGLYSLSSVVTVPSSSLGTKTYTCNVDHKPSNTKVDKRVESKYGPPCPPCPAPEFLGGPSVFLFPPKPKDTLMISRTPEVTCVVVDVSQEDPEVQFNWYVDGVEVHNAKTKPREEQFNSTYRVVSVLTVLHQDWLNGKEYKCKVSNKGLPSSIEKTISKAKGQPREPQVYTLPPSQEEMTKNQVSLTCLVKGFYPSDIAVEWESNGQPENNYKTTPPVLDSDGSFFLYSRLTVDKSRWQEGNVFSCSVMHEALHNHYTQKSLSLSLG
light 1: SYELTQPLSVSVALGQTARITCGGDNIGNKDVHWYQQKPGQAPVLVIYRDSNRPSGIPEGFSGSNSGNTATLTISRAQAGDEADYYCQVWDSIWVFGGGTKLTVLPDIQNPDPAVYQLRDSKSSDKSVCLFTDFDSQTQVSQSKDSDVYITDKCVLDMRSMDFKSNSAVAWSQKSDFACANAFQNSIIPEDTFFPSPESS
light 2: EIVLTQSPDFQSVTPKEKVTITCSANSALSYMYWYQQKPDQSPKLWVHGTSNLASGVPSRFSGSGSGTDFTLTINSLEAEDAATYYCHHWSNTQWTFGGGTKVEIKRTVAAPSVFIFPPSDEQLKSGTASVVCLLNNFYPREAKVQWKVDNALQSGNSQESVTEQDSKDSTYSLSSTLTLSKADYEKHKVYACEVTHQGLSSPVTKSFNRGEC
notes: IgG4 (S228P); also called WBP3248-U6T5.G25-1-uIgG4.SP; U6T5.G25.IgG4

- EC50 [8]: 0.107 nM
B3: W3248-U6T1.G25R-1.uIgG4.SP, bispecific anti-PD-1 x CTLA-4 (bispecific antibody)
heavy: EVQLLESGGGLVQPGGSLRLSCAASGFTFSSHAMSWVRQAPGKGLEWVSTITGGGGSIYYADSVKGRFTISRDNSKNTLYLQMNSLRAEDTAVYYCAKNRAGEGYFDYWGQGTLVTVSSASTKGPSVFPLAPCSRSTSESTAALGCLVKDYFPEPVTVSWNSGALTSGVHTFPAVLQSSGLYSLSSVVTVPSSSLGTKTYTCNVDHKPSNTKVDKRVGGGGSGGGGSQVQLVESGGGVVQPGRSLRLSCAASGFTFSSYTMHWVRQAPGKGLEWVTFISYDGNNKYYADSVKGRFTISRDNSKNTLYLQMNSLRAEDTAIYYCARTGWLGPFDYWGQGTLVTVLEDLKNVFPPEVAVFEPSEAEISHTQKATLVCLATGFYPDHVELSWWVNGKEVHSGVCTDPQPLKEQPALQDSRYALSSRLRVSATFWQNPRNHFRCQVQFYGLSENDEWTQDRAKPVTQIVSAEAWGRYGPPCPPCPAPEFLGGPSVFLFPPKPKDTLMISRTPEVTCVVVDVSQEDPEVQFNWYVDGVEVHNAKTKPREEQFNSTYRVVSVLTVLHQDWLNGKEYKCKVSNKGLPSSIEKTISKAKGQPREPQVYTLPPSQEEMTKNQVSLTCLVKGFYPSDIAVEWESNGQPENNYKTTPPVLDSDGSFFLYSRLTVDKSRWQEGNVFSCSVMHEALHNHYTQKSLSLSLG
light 1: SYELTQPLSVSVALGQTARITCGGDNIGNKDVHWYQQKPGQAPVLVIYRDSNRPSGIPEGFSGSNSGNTATLTISRAQAGDEADYYCQVWDSIWVFGGGTKLTVLGQPKAAPSVTLFPPSSEELQANKATLVCLISDFYPGAVTVAWKADSSPVKAGVETTTPSKQSNNKYAASSYLSLTPEQWKSHKSYSCQVTHEGSTVEKTVAPTECS
light 2: not shown
notes: IgG4 (S228P); also called U6T1.G25R.IgG4
